Biological target: UbcH5B (UniProt P62837 1-147)
Assay: SPR

Binder	Kd [µM]
GST-CBL47–435 M222F (domain or fragment) PPGTVDKKMVEKCWKLMDKVVRLCQNPKLALKNSPPYILDLLPDTYQHLRTILSRYEGKMETLGENEYFRVFMENLMKKTKQTISLFKEGKERMYEENSQPRRNLTKLSLIFSHMLAELKGIFPSGLFQGDTFRITKADAAEFWRKAFGEKTIVPWKSFRQALHEVHPISSGLEAFALKSTIDLTCNDYISVFEFDIFTRLFQPWSSLLRNWNSLAVTHPGYMAFLTYDEVKARLQKFIHKPGSYIFRLSCTRLGQWAIGYVTADGNILQTIPHNKPLFQALIDGFREGFYLFPDGRNQNPDLTGLCEPTPQDHIKVTQEQYELYCEMGSTFQLCKICAENDKDVKIEPCGHLMCTSCLTSWQESEGQGCPFCRCEIKGTEPIVVDPFD	320
GST-CBL47–435 Y368F pY371 K389A (domain or fragment, phosphotyrosine at 371) PPGTVDKKMVEKCWKLMDKVVRLCQNPKLALKNSPPYILDLLPDTYQHLRTILSRYEGKMETLGENEYFRVFMENLMKKTKQTISLFKEGKERMYEENSQPRRNLTKLSLIFSHMLAELKGIFPSGLFQGDTFRITKADAAEFWRKAFGEKTIVPWKSFRQALHEVHPISSGLEAMALKSTIDLTCNDYISVFEFDIFTRLFQPWSSLLRNWNSLAVTHPGYMAFLTYDEVKARLQKFIHKPGSYIFRLSCTRLGQWAIGYVTADGNILQTIPHNKPLFQALIDGFREGFYLFPDGRNQNPDLTGLCEPTPQDHIKVTQEQFELYCEMGSTFQLCKICAENDADVKIEPCGHLMCTSCLTSWQESEGQGCPFCRCEIKGTEPIVVDPFD	81
GST-CBL354–435 Y371F (domain or fragment) EPTPQDHIKVTQEQYELFCEMGSTFQLCKICAENDKDVKIEPCGHLMCTSCLTSWQESEGQGCPFCRCEIKGTEPIVVDPFD	50

Stronger by Kd, values ahead:

Kd [µM]	Binder
43	GST-CBL47–435 Y368F pY371 V431A (domain or fragment, phosphotyrosine at 371) PPGTVDKKMVEKCWKLMDKVVRLCQNPKLALKNSPPYILDLLPDTYQHLRTILSRYEGKMETLGENEYFRVFMENLMKKTKQTISLFKEGKERMYEENSQPRRNLTKLSLIFSHMLAELKGIFPSGLFQGDTFRITKADAAEFWRKAFGEKTIVPWKSFRQALHEVHPISSGLEAMALKSTIDLTCNDYISVFEFDIFTRLFQPWSSLLRNWNSLAVTHPGYMAFLTYDEVKARLQKFIHKPGSYIFRLSCTRLGQWAIGYVTADGNILQTIPHNKPLFQALIDGFREGFYLFPDGRNQNPDLTGLCEPTPQDHIKVTQEQFELYCEMGSTFQLCKICAENDKDVKIEPCGHLMCTSCLTSWQESEGQGCPFCRCEIKGTEPIVADPFD
42	GST-CBL354–435 WT (domain or fragment) EPTPQDHIKVTQEQYELYCEMGSTFQLCKICAENDKDVKIEPCGHLMCTSCLTSWQESEGQGCPFCRCEIKGTEPIVVDPFD
38	GST-CBL354–435 Y368F (domain or fragment) EPTPQDHIKVTQEQFELYCEMGSTFQLCKICAENDKDVKIEPCGHLMCTSCLTSWQESEGQGCPFCRCEIKGTEPIVVDPFD
20	GST-CBL354–435 pY371 (domain or fragment, phosphotyrosine at 371) EPTPQDHIKVTQEQYELYCEMGSTFQLCKICAENDKDVKIEPCGHLMCTSCLTSWQESEGQGCPFCRCEIKGTEPIVVDPFD
18	GST-CBL354–435 Y368F pY371 (domain or fragment, phosphotyrosine at 371) EPTPQDHIKVTQEQFELYCEMGSTFQLCKICAENDKDVKIEPCGHLMCTSCLTSWQESEGQGCPFCRCEIKGTEPIVVDPFD

— PMC3880865 (Nature structural & molecular biology, 2012)
